The results in this text go back to a protein production outcome set (Wang et al. 2014).

A short description of the data set: label from the status in PepcDB records.
Take “MSENNSNREPQKDVGKGNNSLMRWVGRLVLFAIILAITSFLTPGFSIRGFWTFVLASVVITGLDYLVESFMKVDASPFGKGLKGFIISAVIIYLAQFLVPNMRVSIIGAILASLVIGVIDAIIPSRSM”: the protein production result is “failed”.

In the case of “MSENQDELLHYRLSLRLGPVHARQRLGIERETEARVFGRDKRSFHLENLTNAPKLIRFCLKAVGLLRRAQANSLKLTTEHNTFVLPDLPSAFEGFRILHLTDLHVDMDEANLQAVIRQIAPLDYDLCVLTGDYRQRTWGPVDDALDGMARLRLAIHGDAYAVLGNHDSVRMVPALEDMGYRLLMNEMVPLERGDSRLYLAGVDDAHYYKVHNLHRAGDDIPAGGISLLLSHTPEIWREAAHAGYDLFLCGHTHGGQLCLPGGIPLTLDSDCPRRLGRGLWQVNGMQGYTSPGAGTSVLNVRLNCPPEVTIHTLTRGPLEHHHHHH”, the protein production result was “failed”. Then “MSEPFSVPVTVRGYETDTQGHLNQSVYLNYAEHARWSLLQAAGIRQADLVARGVGPVALETTIRFQRELLAGDEVTVTCAFEWGTGKTFRIRQLVTKADGTVAAEIEAVGGLMDLGERRLVPDPRQRFKELAARPELFGLLEHHHHHH”, with “failed”; and “MSEPIDILIAGAGIGGLSCALALHQAGIGKVTLLESSSEIRPLGVGINIQPAAVEALAELGLGPALAATAIPTHELRYIDQSGATVWSEPRGVEAGNAYPQYSIHRGELQMILLAAVRERLGQQAVRTGLGVERIEERDGRVLIGARDGHGKPQALGADVLVGADGIHSAVRAHLHPDQRPLSHGGITMWRGVTEFDRFLDGKTMIVANDEHWSRLVAYPISARHAAEGKSLVNWVCMVPSAAVGQLDNEADWNRDGRLEDVLPFFADWDLGWFDIRDLLTRNQLILQYPMVDRDPLPHWGRGRITLLGDAAHLMYPMGANGASQAILDGIELAAALARNADVAAALREYEEARRPTANKIILANREREKEEWAAASRPKTEKSAALEAITGSYRNQVERPRLEHHHHHH”, with “not failed”; and “MSEQKEDLFKPVGEAAAEVEDESIAEQNKANDGVKLTGAQDAMGHPVQEIESLCMNCGKNGTTRLLLTSIPYFREIIIMSFDCPHCGFKNCEIQPASQIQEKGSRYVLKVECREDFNRQVIKSETATCKFVELDIEIPAKRGQLTTVEGLLSEMIDDLSQDQEMRKSIDEALYKKIDDFIQKVKSYINCEPNTIPITFILDDPAGNSWIEYKPGEPQHKWSHTQYVRTDEQNVQVGIITRDQLEQRRQEQLKQLANRERNPSESVKVGSANPQFLSDATDIENFNNEVQTFRASCPSCTQECETHMKPVNIPHFKEVIIMSTVCDHCGYKSNEVKTGGAIPDKGRRITLYCDDAADLSRDILKSETCSMVIPELHLDIQEGTLGGRFTTLEGLLRQVYEELESRIFTQTSDSMDEATKARWVEFFAKLKEAIAGKVKFTVIMEDPLAGSYIQNVYAPDPDPNMTIEDYERTKEQNEDLGLSDIKVE”, with “failed”. “MSERNLPLEYHPFPAILPKSATVAMLGTFPPTSEKRCMEFHYPNFQNDMWRIMGLLFYKNLDHFRVDQEKRFDPVRIEAFLREKGIALCSSAQTAIRLKGNASDKDLKIIDAIDMQALLTELPQLKWLFTTGGLATETLLSLLPEKSKLPKTNEWINYPYTTDRTLYLYRLPSTSRAYPLSLAKKVEAYRQFFVRVGVL”: the protein production result is listed as “failed”. For “MSETATWQPSASIPNLLKRAAIMAEIRRFFADRGVLEVETPCMSQATVTDIHLFPFETRFVGPGHSQGINLYLMTSPEYHMKRLLAAGCGPVFQLCRSFRNEEMGRHHNPEFTMLEWYRPHYDMYRLMNEVDDLLQQVLDCQPAESLSYQQAFQRHLEIDPLSADKTQLREAAAKLDLSNIADTEEDRDTLLQLLFTMGVEPHIGKEKPTFIYHFPASQASLAQISTEDHRVAERFEVYYKGIELANGFHELTDAREQQQRFEQDNRKRAARGLPQQPIDQNLLDALAAGLPDCSGVALGVDRLVMLALGAESLADVIAFTVDRA”, the protein production result is “not failed”. In the case of “MSFASETKKELTHMDVSDSDAKVELAAFIRMNGAISFSNQLVIMDVQTENAAIARRMYQLLKDLYEVPIELLVRRKMKLKKNNVYIVRLKSGTRGILEDLRILEPPMTFTKSIDRGFVKKRSAKRAYLRGAFLASGSVNNPETSSYHLEIFSVYEEHNEAICALMNQFDLNARTLERKNGFITYLKEAEKITEFLSIIGATSALLHFEDVRIMRDMRNSVNRLVNCETANLNKTINAAVRQIDNIKYIQSTVGLEALPERLREIAALRIANEDVTLKELGEMLTTGQVSKSGINHRLRKLDQIAERLRSGETPAQVGLKVSNS” it was “failed”; in that of “MSFEEFTPLNEKSLVDYIKSTPALSSKIGADKSDDDLVIKEVGDGNLNFVFIVVGSSGSLVIKQALPYIRCIGESWPMTKERAYFEATTLRKHGNLSPDHVPEVYHFDRTMALIGMRYLEPPHIILRKGLIAGIEYPFLADHMSDYMAKTLFFTSLLYHDTTEHRRAVTEFCGNVELCRLTEQVVFSDPYRVSTFNRWTSPYLDDDAKAVREDSALKLEIAELKSMFCERAQALIHGDLHTGSVMVTQDSTQVIDPEFSFYGPMGFDIGAYLGNLILAFFAQDGHATQENDRKEYKQWILRTIEQTWNLFNKRFIALWDQNKDGPGEAYLADIYNNTEVLKFVQENYMRNLLHDSLGFGAAKMIRRIVGVAHVEDFESIEEDKRRAICERSALEFAKMLLKERRKFKSIGEVVSAIQQQS”, “failed”. As for “MSGDAATDADAGRAGPGGVFGVGFRSLLRREILRFVRRPRNTFAPPAITNVLYFAVFGVILGQRIDDIAGFDYIVFLLPGLVVLGAISNAFENASFSIFHGRWNEYIHETLTAPLSYSSMVLAYVFAAALRGIIVGLIIVAVGLVFTTVPVNEPLYLAAFMVVVPLLFASLGVIGGLVAEDFDDLTVMNQFILRPLVFFGAVFYSLEILPPLYRTLSLLNPMVYMVNGVRYGFLGYQEVDPLASLAVLSGLTAAVIVLDIYLFKRGYGLID”, the protein production result is listed as “failed”. In the case of “MSGFDLIIFDCDGVLVDSEIIAAQVESRLLTEAGYPISVEEMGERFAGMTWKNILLQVESEASIPLSASLLDKSEKLLDMRLERDVKIIDGVKFALSRLTTPRCICSNSSSHRLDMMLTKVGLKPYFAPHIYSAKDLGADRVKPKPDIFLHGAAQFGVSPDRVVVVEDSVHGIHGARAAGMRVIGFTGASHTYPSHADRLTDAGAETVISRMQDLPAVIAAMAEWEGAF” it was “not failed”; in that of “MSGLRAGHMPKGRLSGRPSFYFFSQAKLMSRQLDHGRETLMDIFHRHRLSNEGYAASVLERAMQTAEHRPEALVWKGMAALAHNPKLAFLFFINAAQLLPDRADVQALVGRALLAQGLAVLATRYLTQAWQKLPDDASLRMLLWQARSQSEPPATLRSMILAHLPEINAPKELAQVIKLLAAQADAPRRIGVVRYLETHREIQGWAIDLGNLQAPASLKIEADSVNVDAVASIPHPLLSAAGLCTTHGGLRVSVPNPKAQVHIRFADNTHLVGSPVFAMPSFVPPIEQGTQVEQKHVDVLIPVYNGLHETLECINSALEARKLNRTPHRLVVIEDATPVPALAKALKMLAGKGKITLVNNAVNMGFIRTMNRAMALSPGRDVVWLNADTRVQGNWLDRLRNIAHSSADIASVTPFTNNGELMSFPQSQVSHAMPNAREQAALDELAKHANISPVEIETGCGFCLYIKRAALNQVGYLDEVYLARGYGEETDWCLRARSFGWRHMGAPNVFVAHQGGISFGAEKTLRVAHNNAILRRRYPGASARYSAFCLRDPIKAARDALQRARLARFAQQSDEQKASQWPMEAGNTLHIHDGTGADSTLSLVWHRDSHRTWVTLKAPLAPLPLELDYEMPGEFSELVQNLATLPLKGVVLEHQVQCPSKLCDLPSLLNIPYTIVHRDGHLQGLDATYDWQRLANRAESVVLPWQSWHSAFAEAFPQANLVIQPCAELPTPATSQPNILLIGDALDDTDIIQTWVRLGRRITRERLPLTLLVKQDTPWLKTLSATGAVQALPQVTGFSLPEIAKATGCDAVVSLAASPGEKWLAPELASQLDLPLYTRCHSLGTEAGATCVTQLPFSLSQA”, “failed”. “MSGPGSDPVFAALTRPQMVAGVTYSYAVFNLIVTMEAFLISKSFWALLIAPLVHAVGYLGCLNEPRFFDLWITKVSRCPNIRNRGFWQANSYRP”: the protein production entry is recorded as “failed”. As for “MSGQHRTRVGGVILAAGRSSRYESGNKLLATIDGKAVVRQVTETACKSSLSDAVAVLGHEKVAVAAALDGLSLSVQHNDEYATGQSASVRHGVEFARSAGWDAALFLLGDMPFVRVETIEELLEAYRTGTATVVVPEHEGRRGNPVLFDNCHFDSLASVSGDRGGRDIIETTEKTAFIEVSDPGVHWDIDTDADLAEFTDRRDSLLEHHHHHH”, the protein production result was “not failed”.
